Like-named read-outs stand apart in the source and are kept apart here.
Experiments:
[1] = target: T1, MIWI (mouse, UniProt Q9JMB7 1-862); assay: EMSA
[2] = target: T1, MIWI; assay: EMSA; remark: listed apart in the source

T1 sequence (Q9JMB7 whole entry): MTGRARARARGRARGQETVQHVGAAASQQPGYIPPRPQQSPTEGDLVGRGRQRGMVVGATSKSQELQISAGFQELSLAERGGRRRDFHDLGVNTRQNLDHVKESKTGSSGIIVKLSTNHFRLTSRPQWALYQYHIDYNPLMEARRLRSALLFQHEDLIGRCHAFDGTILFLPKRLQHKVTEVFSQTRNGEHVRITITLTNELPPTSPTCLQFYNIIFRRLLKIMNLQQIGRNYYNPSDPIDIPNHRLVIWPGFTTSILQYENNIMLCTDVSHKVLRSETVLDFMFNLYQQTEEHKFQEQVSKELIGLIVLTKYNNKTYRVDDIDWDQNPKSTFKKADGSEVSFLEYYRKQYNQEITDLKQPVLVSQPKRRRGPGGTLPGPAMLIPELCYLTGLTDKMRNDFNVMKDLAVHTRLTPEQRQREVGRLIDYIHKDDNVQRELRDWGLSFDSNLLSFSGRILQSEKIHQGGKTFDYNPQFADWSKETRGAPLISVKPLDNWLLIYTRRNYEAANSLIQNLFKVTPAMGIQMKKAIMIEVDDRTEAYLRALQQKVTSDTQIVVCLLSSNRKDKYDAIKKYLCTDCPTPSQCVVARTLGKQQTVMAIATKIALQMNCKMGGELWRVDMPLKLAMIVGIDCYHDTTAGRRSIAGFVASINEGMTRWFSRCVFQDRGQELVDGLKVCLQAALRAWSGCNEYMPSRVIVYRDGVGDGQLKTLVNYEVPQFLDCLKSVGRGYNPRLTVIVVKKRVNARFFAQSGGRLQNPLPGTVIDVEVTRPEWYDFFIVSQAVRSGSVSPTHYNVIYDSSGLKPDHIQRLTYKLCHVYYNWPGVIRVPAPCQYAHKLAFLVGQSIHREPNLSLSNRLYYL

| Binder | binding result [1] | binding result [2] |
| --- | --- | --- |
| CAGUUAAAGAAAUGCAUGAGAA (ssRNA) [Sly RNA oligonucleotide (putative piRNA)] | binds |  |
| CCUCAUGAAGAAGAGGAGGAGGA (ssRNA) [Ssty RNA oligonucleotide (putative piRNA)] | binds |  |
| UGACAUGAACACAGGUGCUCAGAUAGCUUU (ssRNA) [piR1] |  | binds |

Reference: paper doi:10.1101/407197
